The values below come from patent CN107417789A.

This assay addresses 移除了糖基化位点(Asn-38)的H7 HA(A/鸡/意大利/99假病毒) (influenza A virus A/chicken/Italy/99 (H7)). Put plainly: cell-based or functional assay.

Bounds are passed on as bounds.

Regarding CR6261 (antibody), the H7假病毒中和 IC50 was more than 50 µg/mL.

For F10 (antibody), the H7假病毒中和 IC50 is more than 50 µg/mL.
